This is an account of results in US20230125788, “TDP-43 MODULATING AGENTS AND USES THEREOF” (Washington University, published 2023).

One series has as its target T1, TDP-43 deltaN (UniProt Q13148 Q13148:102-414).
T1 chain: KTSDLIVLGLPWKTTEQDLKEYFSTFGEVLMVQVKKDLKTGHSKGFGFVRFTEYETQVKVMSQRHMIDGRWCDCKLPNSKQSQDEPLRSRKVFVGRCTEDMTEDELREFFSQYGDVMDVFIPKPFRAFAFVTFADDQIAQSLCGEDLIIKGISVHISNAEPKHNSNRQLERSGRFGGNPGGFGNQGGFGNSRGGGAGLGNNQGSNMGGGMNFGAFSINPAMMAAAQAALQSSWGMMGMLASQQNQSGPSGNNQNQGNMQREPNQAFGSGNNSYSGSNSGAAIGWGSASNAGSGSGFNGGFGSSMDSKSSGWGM
Briefly: FP; apparent; 300 mM NaCl. To be noted: tags: N-terminal His6-SUMO; label: FITC.

The target in the next series is T2, TDP-43 RRM1-2 (UniProt Q13148 Q13148:102-269).
T2 chain: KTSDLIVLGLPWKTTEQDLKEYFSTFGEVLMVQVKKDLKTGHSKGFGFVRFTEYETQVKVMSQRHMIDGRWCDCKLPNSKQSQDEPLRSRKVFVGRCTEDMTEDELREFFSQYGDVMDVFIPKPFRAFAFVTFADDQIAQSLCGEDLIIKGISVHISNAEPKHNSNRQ
Kind of series: FP; apparent; 300 mM NaCl. Particulars: tags: N-terminal His6-SUMO; label: FITC.

The target of series [1] is T3, TDP-43 WT (UniProt Q13148 Q13148:1-414). Briefly: FP; apparent; 300 mM NaCl, 10 mM Tris pH 8.0. To be noted: tags: N-terminal His6-SUMO (Smt3), E. coli BL21(DE3), pET28b(+)-SUMO-TDP43; label: FITC.
T3 sequence (Q13148 whole entry, one chain of several): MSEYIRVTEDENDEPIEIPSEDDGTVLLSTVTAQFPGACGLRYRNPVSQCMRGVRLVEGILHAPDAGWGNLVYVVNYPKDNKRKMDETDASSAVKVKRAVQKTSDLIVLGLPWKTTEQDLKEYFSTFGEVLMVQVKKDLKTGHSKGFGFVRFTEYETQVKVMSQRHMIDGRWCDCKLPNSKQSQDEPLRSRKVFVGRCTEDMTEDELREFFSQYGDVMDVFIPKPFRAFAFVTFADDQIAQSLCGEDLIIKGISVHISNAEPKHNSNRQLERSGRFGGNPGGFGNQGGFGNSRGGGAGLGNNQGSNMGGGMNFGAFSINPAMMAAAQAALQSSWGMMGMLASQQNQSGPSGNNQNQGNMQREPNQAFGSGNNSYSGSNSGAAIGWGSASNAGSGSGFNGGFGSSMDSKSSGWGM
Protocol: Each point is the average of >3 technical and 3 biological replicates, respectively (SEM).
Recombinant TDP-43 wild-type (WT) and constructs previously purified were serially diluted in a 1:2 ratio (from 75 to 0 nM) into a 300 mM of NaCl, 10 mM of Tris (pH 8.0), 5% glycerol, 5% sucrose, 1 mM of TCEP buffer solution. A(GU)₆ RNA labeled with fluorescein isothiocyanate (FITC) from IDT was used at a final concentration of 0.6, 1.3, 2.5, and 5 nM. […] The anisotropy measurements were performed in a Biotek SYNERGY Neo2 (BioSPX) plate reader with excitation and emission wavelengths of 480 and 520 nm, respectively. To assess the binding curves, the data were fitted as previously described. Data analysis was performed using GraphPad Prism 5.
In series [2] the target is T3, TDP-43 WT. Kind of series: FP; Kd dramatically lower than unmodified; values only in figure. Particulars: tags: N-terminal His6-SUMO (Smt3), E. coli BL21(DE3), pET28b(+)-SUMO-TDP43.
Series [3] has as its target T3, TDP-43 WT. Kind of series: EMSA; at least three TDP-43 bound per oligo; 150 mM NaCl, 2 mM MgCl2, Tris pH 8. To be noted: tags: N-terminal His6-SUMO (Smt3), E. coli BL21(DE3), pET28b(+)-SUMO-TDP43; label: 5' 700 nm IR dye.
In series [4] the target is T3, TDP-43 WT. Briefly: FP; higher Kd than modified; values only in figure. Particulars: tags: N-terminal His6-SUMO (Smt3), E. coli BL21(DE3), pET28b(+)-SUMO-TDP43.

B1: A(GU)6-FITC (ssRNA)
RNA: AGUGUGUGUGUGU
modifications: 2'-OMe and PS unless otherwise noted (general statement)
In the case of B1, the Kd stood at 700 pM with TDP-43 deltaN, 800 pM with TDP-43 RRM1-2 and 800 pM with TDP-43 WT [1].

B2: A(GU)6 2OMe (XNA)
DNA: AGTGTGTGTGTGT
modifications: 2'-OMe all; PS all linkages
As to B2, in the series with TDP-43 WT [2], the binding result was “binds”.

B3: CLIP34 IR700 (ssRNA)
RNA: GAGAGAGCGCGUGCAGAGACUUGGUGGUGCAUAA
Regarding B3, the binding result with TDP-43 WT [3] was “binds”.

B4: CLIP34 unmodified (ssRNA)
RNA: B3 RNA
Turning to B4, the binding result in the series with TDP-43 WT [4] is “binds”.

B5: A(GU)6 unmodified (ssRNA)
RNA: AGUGUGUGUGUGU
For B5, the binding result with TDP-43 WT [4] is “binds”.

B6: CLIP34 2OMe (XNA)
DNA: GAGAGAGCGCGTGCAGAGACTTGGTGGTGCATAA
modifications: 2'-OMe all; PS all linkages
For B6, the binding result with TDP-43 WT [2] is listed as “binds”.
